Common to all, as to test: cleavage_in_vitro
For series [1], the system named is T1, BsmAI-HF N212A (Bacillus stearothermophilus).
T1 sequence: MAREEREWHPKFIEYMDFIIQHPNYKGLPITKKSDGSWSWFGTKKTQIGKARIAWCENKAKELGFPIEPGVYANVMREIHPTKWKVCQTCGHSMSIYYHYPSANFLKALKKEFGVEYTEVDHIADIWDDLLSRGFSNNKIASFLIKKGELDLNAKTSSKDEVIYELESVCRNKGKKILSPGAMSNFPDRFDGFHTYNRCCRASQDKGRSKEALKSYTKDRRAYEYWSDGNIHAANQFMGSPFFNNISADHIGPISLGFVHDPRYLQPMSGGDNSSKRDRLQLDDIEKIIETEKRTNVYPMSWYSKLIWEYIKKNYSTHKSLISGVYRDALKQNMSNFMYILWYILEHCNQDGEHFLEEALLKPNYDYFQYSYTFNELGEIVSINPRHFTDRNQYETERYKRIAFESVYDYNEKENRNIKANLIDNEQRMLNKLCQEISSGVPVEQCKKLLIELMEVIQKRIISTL
As to conditions: NEB4, relative activity 100%.

In series [2] the test system is T2, BsmAI-WT (Bacillus stearothermophilus).
T2 sequence: T1 sequence with A212N
As to conditions: NEB4, relative activity 100%.

In series [3] the test system is T3, BsmBI-HF W238A (Bacillus stearothermophilus).
T3 sequence: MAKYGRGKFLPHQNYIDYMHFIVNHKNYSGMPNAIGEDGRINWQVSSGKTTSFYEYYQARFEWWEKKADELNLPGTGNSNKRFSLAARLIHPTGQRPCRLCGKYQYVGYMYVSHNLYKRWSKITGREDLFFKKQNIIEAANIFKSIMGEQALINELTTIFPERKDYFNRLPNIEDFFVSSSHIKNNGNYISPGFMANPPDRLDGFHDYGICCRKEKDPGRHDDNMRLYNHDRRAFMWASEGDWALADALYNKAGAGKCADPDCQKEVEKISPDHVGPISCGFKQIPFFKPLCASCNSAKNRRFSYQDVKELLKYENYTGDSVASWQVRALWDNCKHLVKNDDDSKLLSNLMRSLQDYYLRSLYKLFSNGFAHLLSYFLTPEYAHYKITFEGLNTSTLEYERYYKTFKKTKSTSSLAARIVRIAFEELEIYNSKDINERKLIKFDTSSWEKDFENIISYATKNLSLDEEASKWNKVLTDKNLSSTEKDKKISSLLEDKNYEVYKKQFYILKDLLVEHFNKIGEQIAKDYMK
As to conditions: NEB4, relative activity 100%.

The test system of series [4] is T4, BsmBI-WT (Bacillus stearothermophilus).
T4 sequence: T3 sequence with A238W
To be noted: NEB4, relative activity 25%.

Series [5] relates to T5, BstXI-HF N65T (Bacillus stearothermophilus).
T5 sequence: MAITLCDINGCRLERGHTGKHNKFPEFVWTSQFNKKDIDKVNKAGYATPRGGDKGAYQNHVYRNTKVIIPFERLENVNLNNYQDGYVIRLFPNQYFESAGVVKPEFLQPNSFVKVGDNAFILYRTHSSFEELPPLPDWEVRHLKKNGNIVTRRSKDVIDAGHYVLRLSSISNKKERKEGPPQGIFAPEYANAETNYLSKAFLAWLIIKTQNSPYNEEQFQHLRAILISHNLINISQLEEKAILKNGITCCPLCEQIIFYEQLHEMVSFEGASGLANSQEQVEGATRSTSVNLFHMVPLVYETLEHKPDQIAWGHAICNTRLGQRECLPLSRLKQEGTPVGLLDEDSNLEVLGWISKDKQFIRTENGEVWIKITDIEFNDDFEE
To be noted: NEB4, relative activity 100%.

The test system of series [6] is T6, BstXI-WT (Bacillus stearothermophilus).
T6 sequence: T5 sequence with T65N
As to conditions: NEB4, relative activity 100%.

For series [7], the system named is T7, DraIII-HF T181A (Deinococcus radiophilus).
T7 sequence: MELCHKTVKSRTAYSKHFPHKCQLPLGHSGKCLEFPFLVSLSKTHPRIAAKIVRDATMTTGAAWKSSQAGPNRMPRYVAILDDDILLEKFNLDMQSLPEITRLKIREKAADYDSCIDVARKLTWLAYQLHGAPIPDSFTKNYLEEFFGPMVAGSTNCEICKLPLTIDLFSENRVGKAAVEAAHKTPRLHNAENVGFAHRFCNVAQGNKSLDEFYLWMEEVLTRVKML
As to conditions: NEB4, 37 C 1 h, relative activity 100%; Table 1 gives >=2000.

The test system of series [8] is T8, DraIII-WT (Deinococcus radiophilus).
T8 sequence: T7 sequence with A181T
To be noted: NEB4, 37 C 1 h, relative activity 50%.

In series [9] the target is T9, HindIII-WT (Haemophilus influenzae) (UniProt P43870).
T9 sequence: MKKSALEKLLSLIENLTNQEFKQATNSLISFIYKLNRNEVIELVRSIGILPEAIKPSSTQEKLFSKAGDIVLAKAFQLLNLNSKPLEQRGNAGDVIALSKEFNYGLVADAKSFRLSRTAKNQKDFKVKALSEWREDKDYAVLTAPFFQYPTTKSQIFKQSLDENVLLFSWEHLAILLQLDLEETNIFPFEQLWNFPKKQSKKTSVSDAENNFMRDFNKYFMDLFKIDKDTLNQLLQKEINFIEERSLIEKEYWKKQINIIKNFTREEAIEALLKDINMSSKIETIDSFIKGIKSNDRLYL
To be noted: NEB4, relative activity 50%.

Series [10] has as its target T10, SfiI-HF R114A (Streptomyces fimbriatus) (UniProt O52512).
T10 sequence: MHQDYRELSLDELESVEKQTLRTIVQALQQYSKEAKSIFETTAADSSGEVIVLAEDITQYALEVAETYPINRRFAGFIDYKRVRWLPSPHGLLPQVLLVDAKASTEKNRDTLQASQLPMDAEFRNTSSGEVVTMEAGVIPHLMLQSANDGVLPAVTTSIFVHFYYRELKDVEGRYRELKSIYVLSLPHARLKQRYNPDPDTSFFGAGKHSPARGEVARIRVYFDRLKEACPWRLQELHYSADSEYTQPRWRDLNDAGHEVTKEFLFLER
As to conditions: NEB4, relative activity 100%.

The subject of series [11] is T11, PspGI-WT (Pyrococcus species).
T11 sequence: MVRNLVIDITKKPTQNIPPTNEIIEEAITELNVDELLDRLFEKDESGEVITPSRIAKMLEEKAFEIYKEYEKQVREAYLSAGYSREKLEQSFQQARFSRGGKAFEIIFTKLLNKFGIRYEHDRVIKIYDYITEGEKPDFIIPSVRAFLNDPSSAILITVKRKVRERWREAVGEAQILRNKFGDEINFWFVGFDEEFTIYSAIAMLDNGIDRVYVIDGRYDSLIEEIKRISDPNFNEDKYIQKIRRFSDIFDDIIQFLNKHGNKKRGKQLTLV
To be noted: NEB4, relative activity 100%.

The subject of series [12] is T12, PspGI-HF R75A (Pyrococcus species).
T12 sequence: T11 sequence with R75A
To be noted: NEB4, relative activity 100%.

The target of series [13] is T13, SfiI-WT (Streptomyces fimbriatus) (UniProt O52512).
T13 sequence: T10 sequence with A114R
To be noted: NEB4, relative activity 25%.

Numbering of substitutions follows the chain as printed.

Take FX174 DNA: the activity (fidelity index) is > 4000 in series [1] and 250 in series [2].

For lambda DNA, BsmBI sites, the activity (fidelity index) in series [3] amounted to 250; in [4], 4.

Consider lambda DNA, BstXI sites, for which the activity (fidelity index) in [5] is > 1000; in [6] it was 32.

For the substance lambda DNA, DraIII sites, the activity (fidelity index) in [7] is > 64000; in series [8] it was 0.5.

With lambda DNA, HindIII sites, in [9], the activity (fidelity index) is 32.

For pBC4 plasmid, the activity (fidelity index) was > 8000 in series [10], 1 in [11], > 4000 in series [12] and 64 in [13].

The record behind these values is patent publication US20110151450.
